Assay results published in patent US20240101686A1 (SIMCERE ZAIMING PHARMACEUTICAL, published 2024).
Read-outs that look alike come from different tables or passages of the source.

Assays:
pepvIII polypeptide = target: T1, pepvIII polypeptide (human)
T1 construct: synthetic peptide (GL Biochem); also called Leu25-His37 polypeptide
T1 peptide: LEEKKGNYVVTDH

[1] = target: T2, human EGFR-His-tagged fusion protein (human, UniProt P00533 25-645)
T2 construct: extracellular domain; bought; also called human EGFR protein; human EGFR-His protein

[2] = target: T2, human EGFR-His-tagged fusion protein; remark: listed apart in the source
[3] = target: T2, human EGFR-His-tagged fusion protein; remark: listed apart in the source
[4] = target: T2, human EGFR-His-tagged fusion protein; remark: listed apart in the source
[5] = target: T2, human EGFR-His-tagged fusion protein; remark: listed apart in the source
[6] = target: T2, human EGFR-His-tagged fusion protein; remark: listed apart in the source
[7] = target: T2, human EGFR-His-tagged fusion protein; remark: listed apart in the source
[8] = target: T2, human EGFR-His-tagged fusion protein; remark: listed apart in the source
murine EGFR protein [9] = target: T3, murine EGFR protein (murine, UniProt Q01279 25-647)
T3 construct: Bought protein

[10] = target: T4, human EGFRvIII-His tag protein (extracellular domain Leu25-Ser378) (human, UniProt P00533 298-645)
T4 construct: Made in HEK293E cells, purified on nickel column; also called human EGFRvIII protein; EGFRvIII protein; not shown: His tag

[11] = target: T4, human EGFRvIII-His tag protein …; remark: listed apart in the source
[12] = target: T4, human EGFRvIII-His tag protein …; remark: listed apart in the source
[13] = target: T4, human EGFRvIII-His tag protein …; remark: listed apart in the source
murine EGFR protein [14] = target: T3, murine EGFR protein; remark: listed apart in the source
[15] = target: T4, human EGFRvIII-His tag protein …; remark: listed apart in the source
[16] = target: T4, human EGFRvIII-His tag protein …; remark: listed apart in the source
murine EGFR protein [17] = target: T3, murine EGFR protein; remark: listed apart in the source
murine EGFR protein [18] = target: T3, murine EGFR protein; remark: listed apart in the source
murine EGFR protein [19] = target: T3, murine EGFR protein; remark: listed apart in the source
[20] = target: T4, human EGFRvIII-His tag protein …; remark: listed apart in the source
murine EGFR protein [21] = target: T3, murine EGFR protein; remark: listed apart in the source
murine EGFR protein [22] = target: T3, murine EGFR protein; remark: listed apart in the source
murine EGFR protein [23] = target: T3, murine EGFR protein; remark: listed apart in the source
[24] = target: T4, human EGFRvIII-His tag protein …; remark: listed apart in the source
[25] = target: T5, monkey EGFR protein (commercial, SB, catalog number 90285-C08H) (monkey); experiment: ELISA, coated monkey EGFR protein, antibody 1 nM
T5 construct: Bought protein used to coat ELISA plates

[26] = target: T5, monkey EGFR protein (commercial, SB, …); experiment: ELISA, coated monkey EGFR protein, antibody 100 nM
[27] = target: T5, monkey EGFR protein (commercial, SB, …); experiment: ELISA, coated monkey EGFR protein, antibody 0.1 nM
[28] = target: T5, monkey EGFR protein (commercial, SB, …); experiment: ELISA, coated monkey EGFR protein, antibody 0 nM (blank)
[29] = target: T6, cynomolgus monkey EGFR on HEK293T-monkey EGFR cells (cynomolgus monkey, UniProt P55245 25-1210 (rhesus entry)); experiment: FACS, HEK293T-monkey EGFR cells (specificity assay)
[30] = target: T5, monkey EGFR protein (commercial, SB, …); experiment: ELISA, coated monkey EGFR protein, antibody 10 nM
[31] = target: T5, monkey EGFR protein (commercial, SB, …); experiment: ELISA, coated monkey EGFR protein, antibody 0.01 nM
[32] = target: T6, cynomolgus monkey EGFR on …; experiment: FACS, HEK293T-monkey EGFR cells
[33] = target: T5, monkey EGFR protein (commercial, SB, …); experiment: ELISA, coated monkey EGFR protein, antibody 0.0001 nM
[34] = target: T5, monkey EGFR protein (commercial, SB, …); experiment: ELISA, coated monkey EGFR protein, antibody 0.001 nM
[35] = target: T7, human EGFRvIII-His tag protein (human, UniProt P00533 298-645)
T7 construct: Made in HEK293E, purified on nickel column; also called human EGFRvIII protein; not shown: His tag

monkey EGFR protein = target: T8, monkey EGFR protein (cynomolgus monkey, UniProt P55245 25-645 (rhesus entry))
T8 construct: Bought protein (SB 90285-C08H); also called cynomolgus monkey EGFR

human EGFR protein = target: T9, human EGFR protein (human, UniProt P00533 25-645)
T9 construct: also called human EGFR-His; human EGFR-ECD protein; not shown: His tag

murine EGFR protein [36] = target: T10, murine EGFR protein (murine, UniProt Q01279 25-647); remark: listed apart in the source
T10 construct: Bought protein

B1: 30D8-hIgG1 (antibody, V domains shown)
VH: EVQLVESGGGLVKPGGSLRLSCEASGFTFSDAWMSWVRQAPGKGLEWVGRIKSKTDGGTTDYVVPLNGRFIISRDDSRNTLYLQLNNLKTEDTAVYYCTTVPGSYGYWGQGTLVTVSS
VL: DIVMTQSPLSLPVTPGEPASISCRSSQSLLHNKRNNYLDWFLQKPGQSPQLLIYLASNRASGVPDRFSGGGSGTDFTLKISRVEAEDVGVYYCMQAQQTPITFGQGTRLEIK
- binding result (pepvIII polypeptide): binds
- OD450 [1]: 0.06
- OD450 [2]: 0.05
- OD450 [3]: 0.05
- OD450 [4]: 0.05
- OD450 [5]: 0.05
- OD450 [6]: 0.09
- OD450 [7]: 0.05
- OD450 [8]: 0.07

B2: 30D8-hIgG1 (antibody, V domains shown)
VH: EVQLVESGGGLVKPGGSLRLSCEASGFTFSDAWMSWVRQAPGKGLEWVGRIKSKTDGGTTDYVVPLNGRFIISRDDSRNTLYLQLNNLKTEDTAVYYCTTVPGSYGYWGQGTLVTVSS
VL: DIVMTQSPLSLPVTPGEPASISCRSSQSLLHNKRNNYLDWFLQKPGQSPQLLIYLASNRASGVPDRFSGGGSGTDFTLKISRVEAEDVGVYYCMQAQQTPITFGQGTRLEIK
notes: Variable regions cloned with human IgG1 heavy chain constant region and human light chain constant region
- OD450 (murine EGFR protein [9]): 0.06
- OD450 [10]: 2.52
- OD450 [11]: 0.07
- OD450 [12]: 0.15
- OD450 [13]: 2.25
- OD450 (murine EGFR protein [14]): 0.1
- OD450 [15]: 2.61
- OD450 [16]: 0.07
- OD450 (murine EGFR protein [17]): 0.06
- OD450 (murine EGFR protein [18]): 0.06
- OD450 (murine EGFR protein [19]): 0.06
- OD450 [20]: 0.69
- OD450 (murine EGFR protein [21]): 0.06
- OD450 (murine EGFR protein [22]): 0.06
- OD450 (murine EGFR protein [23]): 0.06
- OD450 [24]: 1.89

B3: 30D8-hIgG1 (antibody, V domains shown)
VH: EVQLVESGGGLVKPGGSLRLSCEASGFTFSDAWMSWVRQAPGKGLEWVGRIKSKTDGGTTDYVVPLNGRFIISRDDSRNTLYLQLNNLKTEDTAVYYCTTVPGSYGYWGQGTLVTVSS
VL: DIVMTQSPLSLPVTPGEPASISCRSSQSLLHNKRNNYLDWFLQKPGQSPQLLIYLASNRASGVPDRFSGGGSGTDFTLKISRVEAEDVGVYYCMQAQQTPITFGQGTRLEIK
notes: Anti-EGFRvIII control
- OD450 [25]: 0.06
- OD450 [26]: 0.19
- OD450 [27]: 0.06
- OD450 [28]: 0.06
- Max_MFI [29]: 314
- OD450 [30]: 0.08
- OD450 [31]: 0.06
- Max MFI [32]: 77
- binding result [32]: no binding
- OD450 [33]: 0.05
- OD450 [34]: 0.06

B4: 30D8-hIgG1 (antibody, V domains shown)
VH: EVQLVESGGGLVKPGGSLRLSCEASGFTFSDAWMSWVRQAPGKGLEWVGRIKSKTDGGTTDYVVPLNGRFIISRDDSRNTLYLQLNNLKTEDTAVYYCTTVPGSYGYWGQGTLVTVSS
VL: DIVMTQSPLSLPVTPGEPASISCRSSQSLLHNKRNNYLDWFLQKPGQSPQLLIYLASNRASGVPDRFSGGGSGTDFTLKISRVEAEDVGVYYCMQAQQTPITFGQGTRLEIK
notes: anti-EGFRvIII control
- Kd [35]: 11.7 nM
- koff [35]: 0.00229 s⁻¹
- kon [35]: 197000 M⁻¹ s⁻¹
- binding result (monkey EGFR protein): no binding (tested: 200 nM (highest antigen concentration))
- binding result (human EGFR protein): no binding (tested: 30 µg/mL (highest EGFR concentration))
- binding result (murine EGFR protein [36]): no binding (tested: 200 nM (highest antigen concentration))
